Experimental data: paper PMC5458466, “DNA‐induced unfolding of the thyroid hormone receptor α A/B domain through allostery”

Target: T1, TRα (A/B + DBD) (chicken, UniProt P04625 1-154)
T1 sequence: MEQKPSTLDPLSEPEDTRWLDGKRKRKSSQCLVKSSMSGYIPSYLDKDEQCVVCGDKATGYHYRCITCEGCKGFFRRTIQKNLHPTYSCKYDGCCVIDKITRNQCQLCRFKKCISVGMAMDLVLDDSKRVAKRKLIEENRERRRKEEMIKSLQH
Assay: intrinsic Trp fluorescence quenching; room temperature, 2 uM protein, 5 mM Mg2+; average Kd, two-site fit; 50 mM HEPES pH 7.5, 125 mM NaCl, 5 mM MgCl2, 1 mM TCEP; ITC 25 C, fluorescence room temperature
Settings: protein: recombinant; tags: 6xHis (pET15b); chain copies: 2; blunt; 19-mer complementary strands annealed

B1: DR4 TRE (dsDNA)
DNA 1: CCAGGTCATTTCAGGTCAG
DNA 2: CTGACCTGAAATGACCTGG
Work on B1 yielded a Kd of 2690 ± 220 nM.
